The experiment addresses 人EphA2 (human EphA2 on cells: 293T-EphA2 stable line and EphA2-positive tumour lines HCT116, HepG2, HCC827, MDA-MB-231) (human) (UniProt P29317). Put plainly: FACS on 293T-EphA2 cells, EphrinA1-hFc alone (positive control without hybridoma supernatant), APC anti-human IgG Fc.
UniProt P29317, sequence (P29317 24-976): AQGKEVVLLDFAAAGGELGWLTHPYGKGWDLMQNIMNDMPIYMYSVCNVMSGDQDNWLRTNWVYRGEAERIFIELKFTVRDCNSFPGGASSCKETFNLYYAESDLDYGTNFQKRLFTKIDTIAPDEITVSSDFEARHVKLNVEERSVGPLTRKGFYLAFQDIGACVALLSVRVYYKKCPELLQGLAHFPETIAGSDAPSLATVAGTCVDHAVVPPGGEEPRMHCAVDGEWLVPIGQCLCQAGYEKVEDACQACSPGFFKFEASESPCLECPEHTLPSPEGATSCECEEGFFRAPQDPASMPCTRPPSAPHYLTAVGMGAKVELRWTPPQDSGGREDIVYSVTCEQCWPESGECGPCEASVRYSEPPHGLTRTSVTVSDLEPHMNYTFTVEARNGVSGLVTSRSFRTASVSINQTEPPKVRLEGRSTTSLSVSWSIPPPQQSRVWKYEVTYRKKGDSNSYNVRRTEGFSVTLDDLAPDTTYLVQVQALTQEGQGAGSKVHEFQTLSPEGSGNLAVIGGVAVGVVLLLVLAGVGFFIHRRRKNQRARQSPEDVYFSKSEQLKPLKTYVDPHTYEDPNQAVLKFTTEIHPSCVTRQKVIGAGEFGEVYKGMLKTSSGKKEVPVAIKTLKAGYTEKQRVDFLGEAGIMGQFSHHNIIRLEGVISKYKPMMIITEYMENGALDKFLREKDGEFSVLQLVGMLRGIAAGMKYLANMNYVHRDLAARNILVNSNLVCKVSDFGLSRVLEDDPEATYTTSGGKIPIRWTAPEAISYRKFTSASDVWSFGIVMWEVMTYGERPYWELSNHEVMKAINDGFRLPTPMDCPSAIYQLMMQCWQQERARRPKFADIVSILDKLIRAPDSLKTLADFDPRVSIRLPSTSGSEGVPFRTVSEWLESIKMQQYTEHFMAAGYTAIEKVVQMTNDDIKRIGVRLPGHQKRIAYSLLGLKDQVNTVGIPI

On to “重组EphrinA1-hFc配体蛋白 (recombinant EphrinA1-hFc ligand protein) (Fc fusion)”, for which the 293T-EphA2细胞结合活性 stood at 228000.
